The results in this text go back to article PMC3713010, “Sox2 Transcriptionally Regulates Pqbp1, an Intellectual Disability-Microcephaly Causative Gene, in Neural Stem Progenitor Cells”.

Holding throughout (experiment): EMSA; 10% glycerol, 20 mM HEPES pH 7.8, 45 mM KCl, 10 mM NaCl, 1 mM EDTA, 1 mM DTT, 0.2 ug/uL BSA, 0.1% NP-40, 50 ng poly-dIdC; 20 ng each GST protein; room temperature 30 min (heterodimers 4 C); 6% PAGE 0.25x TBE
Conditions in all cases: protein: recombinant; tags: GST (N-terminal, pGEX-6P-1); label: 32P-dCTP fill-in of the 5' (dG)5 overhangs of both strands (Methods; control probes are given with GGG)

Data set [1] addresses Pax6 DNA-binding domain (BD-Pax6) (Mus musculus (B6), UniProt P63015 190-289). The gist of the method: (§1)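 Candidate cis-element oligonucleotides were annealed, labelled with 32P-dCTP and tested against GST-tagged transcription factor DNA-binding domains made in E. coli BL21 and purified on glutathione-sepharose. For each binding reaction, 20 ng protein was combined with 40,000–50,000 cpm probe and 50 ng poly-dIdC in HEPES/KCl glycerol buffer containing BSA and detergent for 30 min at room temperature. Gels of 6% polyacrylamide in 0.25×TBE were run at 4°C, and band radioactivity was measured on a BAS4000 imager. The readout for DNA binding was the band signal in the expected shift region.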

In data set [2] the target is T1, Brn2 DNA-binding domain (BD-Brn2) (Mus musculus (B6), UniProt P31360 336-435).
T1 sequence: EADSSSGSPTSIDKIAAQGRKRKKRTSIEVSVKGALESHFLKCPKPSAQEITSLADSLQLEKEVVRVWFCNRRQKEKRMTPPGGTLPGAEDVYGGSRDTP
A digest of the protocol: as §1

The target in data set [3] is T2, Oct6 DNA-binding domain (BD-Oct6) (Mus musculus (B6), UniProt P21952 317-416).
T2 sequence: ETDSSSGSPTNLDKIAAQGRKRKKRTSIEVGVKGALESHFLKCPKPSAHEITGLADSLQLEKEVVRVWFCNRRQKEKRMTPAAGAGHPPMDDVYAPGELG
A digest of the protocol: as §1

Sequence of Pax6 DNA-binding domain (BD-Pax6) (P63015 190-289): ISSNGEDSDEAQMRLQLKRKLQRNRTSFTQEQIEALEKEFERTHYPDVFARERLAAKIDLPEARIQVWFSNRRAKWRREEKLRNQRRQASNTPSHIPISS

B1: 109 (dsDNA)
DNA 1: GGGGGCTTTTTTTTTTGTATGTGATTTGAGGCAGAGTCCCCC
DNA 2: GGGGGACTCTGCCTCAAATCACATACAAAAAAAAAAGCCCCC
As to B1, the binding result in data set [1], in data set [2] and in data set [3] was “no binding” each time.

B2: 114 (dsDNA)
DNA 1: GGGGGTGATTTTTGCAAAATTTTGTTTTGTTTCTTGAGCCCCC
DNA 2: GGGGGCTCAAGAAACAAAACAAAATTTTGCAAAAATCACCCCC
Regarding B2, the binding result in data set [1], in data set [2] and in data set [3] was “no binding” in each case.

B3: 108 (dsDNA)
DNA 1: GGGGGCATCTTATCGTTAATATATACGTTTGTTACATATACCCCC
DNA 2: GGGGGTATATGTAACAAACGTATATATTAACGATAAGATGCCCCC
As to B3, the binding result in data set [1], in data set [2] and in data set [3] was “binds” throughout.

B4: 111 (dsDNA)
DNA 1: GGGGGTTCAACCTTTTGTTGTATCATTTAAAAAACATTCCCCC
DNA 2: GGGGGAATGTTTTTTAAATGATACAACAAAAGGTTGAACCCCC
As to B4, the binding result is given as “no binding” in data set [1], “binds” in data set [2] and “binds” in data set [3].

B5: 105 (dsDNA)
DNA 1: GGGGGATTTTTTAAAAAATTAGACTACCACAAATCAACTGTCCCCC
DNA 2: GGGGGACAGTTGATTTGTGGTAGTCTAATTTTTTAAAAAATCCCCC
Regarding B5, the binding result in data set [1], in data set [2] and in data set [3] was “binds” in each case.

B6: 102b (dsDNA)
DNA 1: GGGGGAAAACAAAACAAAACTGGATTTGGCGATTGTATCCCCC
DNA 2: GGGGGATACAATCGCCAAATCCAGTTTTGTTTTGTTTTCCCCC
In the case of B6, the binding result in data set [1], in data set [2] and in data set [3] was “no binding” each time.

B7: 10 (dsDNA)
DNA 1: GGGGGACACACACACAAAGATTTATTTATTCATTTAATCCCCC
DNA 2: GGGGGATTAAATGAATAAATAAATCTTTGTGTGTGTGTCCCCC
Turning to B7, the figures for the binding result in data set [1], in data set [2] and in data set [3] were “no binding”, “binds” and “no binding”, respectively.

B8: 112 (dsDNA)
DNA 1: GGGGGTGTGTTCATTTGTTTTTATTTTAGAAGGAGTCCCCC
DNA 2: GGGGGACTCCTTCTAAAATAAAAACAAATGAACACACCCCC
For the molecule B8, the binding result in data set [1] is “no binding”; in data set [2] it was “binds”; in data set [3], “binds”.

B9: 104 (dsDNA)
DNA 1: GGGGGCACAATTTTTATAATATATAATTGTTTCATCAACCCCC
DNA 2: GGGGGTTGATGAAACAATTATATATTATAAAAATTGTGCCCCC
Turning to B9, the binding result in data set [1], in data set [2] and in data set [3] was “binds” each time.

B10: 9 (dsDNA)
DNA 1: GGGGGTCCTGCCACTTGGGTTGCAGTGAGGACAATGAAATGAGCCCCC
DNA 2: GGGGGCTCATTTCATTGTCCTCACTGCAACCCAAGTGGCAGGACCCCC
Regarding B10, the binding result in data set [1], in data set [2] and in data set [3] was “no binding” throughout.

B11: 102c (dsDNA)
DNA 1: GGGGGATTTGGCGATTGTATTATAATTGTCTATCAGTCCCCC
DNA 2: GGGGGACTGATAGACAATTATAATACAATCGCCAAATCCCCC
With B11, the binding result in data set [1], in data set [2] and in data set [3] was “binds” each time.

B12: 102a (dsDNA)
DNA 1: GGGGGGGATCCCCACAATACAAAAAAAACAAAAACAAAACCCCCC
DNA 2: GGGGGGTTTTGTTTTTGTTTTTTTTGTATTGTGGGGATCCCCCCC
In the case of B12, the binding result in data set [1], in data set [2] and in data set [3] was “no binding” throughout.

B13: 100 (dsDNA)
DNA 1: GGGGGCAACCAAAAAAAATGTATTTTACAAAAATCACAACCCCC
DNA 2: GGGGGTTGTGATTTTTGTAAAATACATTTTTTTTGGTTGCCCCC
B13: the binding result in data set [1] is on record as “binds”; in data set [2] it was “no binding”; in data set [3] it was “binds”.

B14: 1 (dsDNA)
DNA 1: GGGGGAAAATAACCAAAATAAAAAGTGTACAATTCAGTGGCCCCCC
DNA 2: GGGGGGCCACTGAATTGTACACTTTTTATTTTGGTTATTTTCCCCC
For the molecule B14, the binding result in data set [1], in data set [2] and in data set [3] was “no binding” in each case.

B15: 2 (dsDNA)
DNA 1: GGGGGGCCATAGAATTGTACTTCTGTCACCAGTTTTATTTTTTTATTTCCCCC
DNA 2: GGGGGAAATAAAAAAATAAAACTGGTGACAGAAGTACAATTCTATGGCCCCCC
Take B15: the binding result in data set [1], in data set [2] and in data set [3] was “no binding” throughout.

B16: 106 (dsDNA)
DNA 1: GGGGGGCTTCCCTAGAATTGGAGATACAAAGGGCTCTGCCCCC
DNA 2: GGGGGCAGAGCCCTTTGTATCTCCAATTCTAGGGAAGCCCCCC
With B16, the binding result in data set [1], in data set [2] and in data set [3] was “no binding” in each case.

B17: 101 (dsDNA)
DNA 1: GGGGGTGCCTCCTTTTGTGAGCTATTTATAATGCTAACCCCC
DNA 2: GGGGGTTAGCATTATAAATAGCTCACAAAAGGAGGCACCCCC
Regarding B17, the binding result in data set [1] is on record as “no binding”; in data set [2] it was “binds”; in data set [3], “binds”.

B18: 110 (dsDNA)
DNA 1: GGGGGTTTATTTATTTGTTTTATTTCTATTTTTCTTGGTGACCCCC
DNA 2: GGGGGTCACCAAGAAAAATAGAAATAAAACAAATAAATAAACCCCC
With B18, the binding result is recorded as “no binding” in data set [1], “no binding” in data set [2] and “binds” in data set [3].

B19: 107 (dsDNA)
DNA 1: GGGGGACTAGTTTTCTATTACTACAAATCTCAACTCCCCC
DNA 2: GGGGGAGTTGAGATTTGTAGTAATAGAAAACTAGTCCCCC
In the case of B19, the binding result in data set [1], in data set [2] and in data set [3] was “no binding” in each case.

B20: 113 (dsDNA)
DNA 1: GGGGGACTAAGTCATTGTTTATTTCCGTGCTGTTCCCCC
DNA 2: GGGGGAACAGCACGGAAATAAACAATGACTTAGTCCCCC
For B20, the binding result in data set [1], in data set [2] and in data set [3] was “no binding” in each case.
